Test results taken from a protein production outcome set (Wang et al. 2014).

Experiment: label from the status in PepcDB records
In the case of “MHAKFLDTLDWGILIAYFLILIAIGIWASSKRKKGSSLFLAEHSLRWHHIGFSMWGTNVGPSMLIASASAGFTTGIVSGNYAWYAFVFICLLAFVFAPRYLGSRVSTLPEFMGKRFGQSTRNILAWYTIVTILISWLALTLFAGGVLIRQVFDIPMWQSALILLIISAFFTMLGGLKAVAYTNVYQMILLILVSAALAIVGIYKVGGISALTDAVPADFWNLFRPNDDTAFPWLPIILGYPVMGVWFWCTDQSMVQPVLAAKSLKEGQLGTNFTGWLKILDVPLYILPGIICLALFPQLENPDEAYMTMVTHLFPVGMVGLVLAVLTAALVSTIGSALNALSTVFTMDIYVKKIRPQAKQKEIIRVGQVVTVAGALISVIITIAIDSIHGLNLFNVFQSVLGFIAPPMAAVFLFGVFWKRTTTLAANAALTVGTVFSIGVGVLYLWVFPADQYSAWPHFMLLSFYLFVIIGIGMVVVGLLDKTPQTAILNMEKIEEKPARIVLILWGLLIVTMIGLYIFFNGH”, the protein production is reported as “failed”.
For “MHALIVVAHHHPRSLTHALAARIAEGVVRAGHSAETADLAAEGFEPRFGLADHAVHRGQASPPADVLAEQARIDRADTLVLVYPIYWWSMPALLKGWIDRVFSNGWAFDYSIGGDLRKKLQRLRVVLVGVGGADAGTFERHGYAGAMRTQIDHGIFDYCGARVVRSELLLESESADPIRHLDQALHIGSQLFAARGAQGAAQAQPLEA”, the protein production was “failed”.
With “MHATQAILQGLRPVWTRPARLILTTPMSTTPPVPSPLQRGTLKQRRNTLPKRSNRHRDGRVYYANLAATMIARDNLRAAQIILAESHRRHPAFCDTRLMEAGVHLSLGRSDAAEAALRICHEAEPDEQRAVSGLVEIALERADATTARQLLEDQPQTPTFDLARARIALFNGDPSAARTFLDAHPAEGSTTVLAAFADAMEGDLDTAIARLNAQANRTDAALALAALQAAAGVVPDAAPSSPTASFFTALNPAANDDRRAALNAAEGFEQGFTAAGLDAVPQGSPDLALGVVFRLWGFHGAALERLVAASNDDPENPLAAYFVAVAHLKLGQNAQAEAALAKARTAAPSFFAANIAAAELRIRAGAPQEALAMLKAAVAVREDPGALMRIGLIEESFGDDDTARAAYERFVAVQPGSYIGYNQLAWHLARRGIELDRAQELAERANTLQPENASVLDTLGWIAFLRGDGAGAIERLRAAHEISQGDIPIISFHLAQAELKYGETPRGIALLQDLTAAGPAAYPFSQEATDILAKALQ” the protein production was “failed”.
With “MHEKTKFRLHSHDVPYGSGSGQQSVTGFPGVVDSNSYWIVKPVPGTTEKQGDAVKSGATIRLQHMKTRKWLHSHLHASPISGNLEVSCFGDDTNSDTGDHWKLIIEGSGKTWKQDQRVRLQHIDTSGYLHSHDKKYQRIAGGQQEVCGIREKKADNIWLAAEGVYLPLNESSK” the protein production was “not failed”.
In the case of “MHERTGLWRGITAVGALLLAVAIMAGTIMETYRTSLDAFVGTRSQRTVTDQSADNGDSWTYKSEYKTAKEAYEGFKKTAMDEAQETYVLLKNSDNALPLSKSAKITMFGVRSYAPVYGSSGGSVTDGNSTVEITKAFEEEGFQINPSMLKAYQNYFKDKKWTTPQFGGGILPEYEDITKYNDPCELSLDELAKLNPEYKSQYGEYQDAAIVVVGRPAGENGDGYYPGQDGLADGVNTVTGNILSLSDEEMALVNEAKANFSKVIVLVNSTNPMEIANLQDDPDIDAIMWIGYPGAYGFYGVADVLNGTVSPSAHLGDVMAKNSAVAPAMSNYGNVAWKNASDFSEDAAVNSYLMEAEGIYTGYRYYETRYADIVMGNGGDTASAGTYAASDGTVATADGTWDYANEVVYPFGYGLSYTTFEQKLDGVEIKGDKKTAVATVTVKNTGSVEGKSVIQLYASVPYTDYDKKNGVGKSAIQLMDFEKTNALKPGDSQTITMTVDLSNLASYDSNKAKTYIVDPGDYYFSIGDDVHDALNNVLAAQGYSESDGMTAAGDKTKTYTWSWDGGVDADTFATSSTGTKITNQLSDGKYATDYNAFDKGAVTYLTRSDWNGTFPKTYSGISANEEVSKLLNNDFIDLKSDGDVSDITIGDTSSSLTLNDMKGASYDDERWDELTSKVSVKEFMHFAETAFHAIGAIDSVGLQEMTTDDGPGGSDSHYLNEGQYQGKAYADADDYADKSSRVAPSPTNLAYSWNKELAYRNGEVILGESSLVFRLPIMIAPAMNLHRHAYNSRGVEYYSEDPILSGYIGSAVVQGAQSKGVLVNVKHLAFNDQEINRSGIATFMSEQKAREMELRNFQQAFEANGKPASFESDDAKKNTYTQGALGVMTSYNRIGAVASSANAAVMVNILRDEWGFTGYNVTDFTSVSPHAAPKESVLAGTSAFCGFGNQGVKYWDAATLSKDRDMLLAIKQNMHYSLWAIANSNAMNGVNSSTHTENVMTWWRAVYLGVIAASGVVTLIGLAGYTTTRIRPARNADNGPTAASK”, the protein production is reported as “failed”.
In the case of “MHFRLSFISIIYRLLGILLASAFVGWLFDYVLLVMLATSIFLLVWHYHHLFKLINWIWQSKALSPPQAKGVWGYLYDGLYRQVKQQRNKQKQLNEKIRRFRDGAEALPDAALMLSEELTIEWGNKKAQRLLGVRWPDDFGQRIDNLLRAPEFSDYLAHENFEYPCLLVSPIHSDVQLEIRLMAYGSEHVLLLARDISNLQRLEDMRRDFVANVSHELKTPLTVVRGYVEMIQASPEAFDPHWQKAFQTIEGQVSRMDRLVEQLLNLAKVENNSDDEKQCVNMAQLIRTLVDEVTWLNQEKQHQIMLDISTDVSVLGFETELKSACANLLSNAIAYTPPKGCIEVSWRLMGNKAIFSVKDNGDGIKPEHVNRLTERFYRIDRSRSRDTGGSGLGLAIVKHVLHHHQAELIINSHWGQGSEFSIYFDPSTLSNPSR”, the protein production is reported as “failed”.
In the case of “MHGTRRTRKDSPCMPAIHRAPLLRRREFRHEDRNGSLAPALDLIAWSRSAFGWLAHQPYLLLSLTSLFWAGNIVLGRAVAGHVPPVTLSCARWVGAMLLLLPFAWPHLRHDWRKLRAQWKLMIVLSATGFAINNALSYWGLQYTQALNALLMQSSGPLFVALWSLLLFGVRLTWMQATGIALSLLGVLTIILRGDFAALAGIELNRGDLMVAGALCAFGLYSALMPKRPATHPLSLIVVTTGCGALLLLPFSAWEYASGVRPSADWISVATLAYVVIFPSMLAYLCFNRGVALIGPNRSAPFLHLMPVFGSVMAIVLLGEKPELFHLAGYAMVVAGVFIAARR”, the protein production is reported as “failed”.
In the case of “MHIAILGCTSQIAKDLIRSIYVYSQHDLILFGRTPQQTQSWLAENGITSRCSVNQYEEYPNIDHDVVINFVGIGDPSKAAAMGGSIFDITLHYDELVLNELKKYPDRRYLFLSSGAAYGSSFLEPADADTPSTININNLLPQEYYSVAKLHAECRHRSLKEYAIVDLRVFNVFSRTQDLEARFFITDIVRSIHSGTELITSSDMIYRDFMHPKDFYQLVERVLNAPPMNISLDCYSRQPVDKTTLLDEMKKTFGLSYRVKESNMSINATGIKPCYYSKNKRAAEFGYLPEYSSLETIIEETNAILGLQKTVLEHHHHHH”, the protein production is reported as “not failed”.
With “MHILYFLFPKVTFNSFSTPIFFTLISFYSLVTFFPLLSLFIRTSIPSNLINMIIQNSIKGVFVHLDVKMRFFLDFYFLNSLICYSNYIVPFLLAHTLNLITPSVLTTVECDF” the protein production was “failed”.
In the case of “MHISFIIPAFNEEQLIEPCLRSITDAVAANRSYGYTSEIIVVDNNSTDATAQLAKQAGAQVVFEPVNHIARARTAGAGAARGDWLVFMDADCLLNAGLVGDIFELIRQGRHIGAGSTLYMPGQPWWAEMLLRIWTFLSVQLGWAAGALIVCNAAAFREVGGFDLTLYAAEEIDLSQKLKKYGRKRKLKFAILNAHPLETSSRKTQLYSGWEIVGQFLRLVLSPLGTLRNKKKLPMWYDGRRLEHHHHHH”, the protein production is reported as “not failed”.
With “MHKDELLELHEQMVTIMEYFRDDMDSVDPDLFDAYQELDVRPSDVHKSKSEHKHAVFVLGNSLATAMSEDEFSDAGRVSKRMKELAEDAERKLLEHHHHHH” the protein production was “not failed”.
In the case of “MHKKTVILIIFAILGGVMGAAYFTRAWLVMGITSRLVNNIIVNILLGAIIFLILGSLFAGVLVRLINRIEAYLNRQNPMTLIFGSLLTIVGLALALLISQFLFRVPSFFIGTVIPWILMILFGYFGYRIGARLSKIRLEEWRKLFQSRSKKAEEETDKQVLDKETEPNFHHYKILDTNILIDGRIYDLAKTGFLEGTLLVPNFVLYELQYIADSSDSVKRVRGRRGLDILNKLQNEHIMPIEMYEGDFEDIPEVDSKLIALAKQNGGVIVTNDYNLNKVIQFQNVQVLNINSLANALKPRVIPGENLHVMVVKNGTERQQGVAYLDDGTMVVVEDGRYFINKQLDVVVTSAIQTDAGRMIFAKPLHSNKNIEEQANAGKEGKGSNSAKPTKRSR”, the protein production is reported as “failed”.
In the case of “MHLATLASGSSGNSIVVGHEKRNFLVDCGISLKATLHNLAILDIAPSEIEGIFITHEHSDHIKGVGAVARKLKIPIYASAKIWDELNPSIGKLKDEQRVVVKDAFTCAGLRVRVFPTSHDSQESFGVRVEVEQPVKGRSRAIGIATDTGIVTEEMHQALKGCDALVVEANHDREMLWQGGYPWYLKKRISGNYGHLENSQLAEGLLQWIEGNTQRIVLAHLSDENNTPETALSTILRILKESRVAKENRDLRLRVAPRYTPHELIVLEEY”, the protein production is reported as “failed”.
In the case of “MHLKEILAQFSFFTAIPVKSSASLEEIAESSYISPIIVGISLGLIESVAYLILYRILGELTGIVLLGIIELLRGFNHLDGLLDLGDALMIRGNREKKIKALKDVEVGSGGIGLLLVYLSIQIVALLKLDFSLYTIFYLISSNVLSMSLSLYILSTISPIPESNLGRIFHDKLKGKSTILLLELIPFISLYNVIVFIIFYMIMYKICGSLGGSSGDIAGASITLSFPLFLITDEITNLNYSLLSILCYLFSHLH”, the protein production is reported as “failed”.
In the case of “MHLPPKLALTTGVLLVALPLATPAWGQPPTPASPLVQQLNNGNWLDPKEAETLRDELYYQRAIHAYMTMLPALNVIGMRDGSEKVFGAGYNVLPVWKERMDARTMVPTPNADVIYSMSYLDLKKTGPLVVKAPANVIGMFTDFFQRTLTDVGAIGPDRARGGLYLILPPDYDGHVPSSYFVVKSPTYNVFLFFRTIMGQGKGKPDPAPAVKAAETTRVYPLWAEEKDIKPMEFPDGSGKHINMMYPVDQEYWTKLKEFVDYEPVSAIDPELRGVLASIGIVKGQPFKPTAREQELLKRAVETAPKMILAMRQLGREDKRHLYYKDRQWERAWAGATAEWMQDSYLDVNQRATFFQIAYSSAPAMVMRTTGAGSKYPFTARDANGEFLNGSATYKLRMPPDAPAALFWAVTAYNVTDGTMPETDQLMPSTNGYYDIPKQKDGSTEIWFGPQKPADVADAAFIKTIPNRNFLVTLRLYGAEDAFYDQTWKPDDVVKVKLEHHHHHH”, the protein production is reported as “not failed”.
In the case of “MHLWWRYHLATIIILFAMILTIYFLVPPLFYIEIIGVIFILFLWYIISPGILLRVIKSKKVENEDVLRKFEYALALVQMKKIKLHEINSSKPNAFVLGNFLSYNVIVTRGLLESLNDRELISVLLHELHHIKNRDIEIQLIYVLIVNTFYIYIANYNPLLGLSELVIGVVLLFPVHRLLEKNADIKACRTTNWIPLNLANALVKIGYLSRFLPHEIIRDYSEVDLTLAKETILRDDKKGFIFSTHPALSERLKYISKFIKTL”, the protein production is reported as “failed”.
With “MHNDFNLLILSGPSGAGKSTLTKYLQEKIPKTHFSLSTTTRKPREGEVDGLHYNFVSEEEFKQGIEKGQFLEWAIVHNHYYGTSKIPVEKALKEGKIVIFDIDVQGHEILKKHYPNACSVFISTKNQEILKERLLLRGTDSKETIEKRLINAYKEMQCLESFDYLIINEDLEKSKEIILSIAKTLVHRLKAFNFEKICKAWKNETL” the protein production was “failed”.
For “MHPSLKYMRKDRLPHIFCSGCGNGIVLNCFTNALDKLALKNEDYIAISGIGCSSRVPGYLFCDSLHTTHGRPIAFALGTKVIQNDKKVVVFTGDGDLSAIGGNHFIHGCRRNIDITVICINNNIYGMTGGQCSPTTPHEKKATTAPYGNPENPLDLCELAKAAGATYVARWTTANPIQLANSIKKGMDKKGFSFIEVVSQCPTYYGRFNVSRKPSEMMKNLKESAITVRKAESMEKEELLNKIVVGEFLNIEKPEYVEQLKKLQE”, the protein production was “failed”.
